1 molecule from patent US20150158938A1 (SNU R AND DB FOUNDATION, published 2015) can be followed below.

The target of this assay is T1, vascular endothelial growth factor receptor-2 (VEGFR2) on HUVEC (human, UniProt P35968 20-1356).
T1 construct: whole, on cells
As to the kind of experiment: flow cytometry on HUVEC (express VEGFR2), FITC anti-His detection. (In general: In flow cytometry, cells or beads pass a laser one at a time.)

T1 sequence (P35968 20-1356): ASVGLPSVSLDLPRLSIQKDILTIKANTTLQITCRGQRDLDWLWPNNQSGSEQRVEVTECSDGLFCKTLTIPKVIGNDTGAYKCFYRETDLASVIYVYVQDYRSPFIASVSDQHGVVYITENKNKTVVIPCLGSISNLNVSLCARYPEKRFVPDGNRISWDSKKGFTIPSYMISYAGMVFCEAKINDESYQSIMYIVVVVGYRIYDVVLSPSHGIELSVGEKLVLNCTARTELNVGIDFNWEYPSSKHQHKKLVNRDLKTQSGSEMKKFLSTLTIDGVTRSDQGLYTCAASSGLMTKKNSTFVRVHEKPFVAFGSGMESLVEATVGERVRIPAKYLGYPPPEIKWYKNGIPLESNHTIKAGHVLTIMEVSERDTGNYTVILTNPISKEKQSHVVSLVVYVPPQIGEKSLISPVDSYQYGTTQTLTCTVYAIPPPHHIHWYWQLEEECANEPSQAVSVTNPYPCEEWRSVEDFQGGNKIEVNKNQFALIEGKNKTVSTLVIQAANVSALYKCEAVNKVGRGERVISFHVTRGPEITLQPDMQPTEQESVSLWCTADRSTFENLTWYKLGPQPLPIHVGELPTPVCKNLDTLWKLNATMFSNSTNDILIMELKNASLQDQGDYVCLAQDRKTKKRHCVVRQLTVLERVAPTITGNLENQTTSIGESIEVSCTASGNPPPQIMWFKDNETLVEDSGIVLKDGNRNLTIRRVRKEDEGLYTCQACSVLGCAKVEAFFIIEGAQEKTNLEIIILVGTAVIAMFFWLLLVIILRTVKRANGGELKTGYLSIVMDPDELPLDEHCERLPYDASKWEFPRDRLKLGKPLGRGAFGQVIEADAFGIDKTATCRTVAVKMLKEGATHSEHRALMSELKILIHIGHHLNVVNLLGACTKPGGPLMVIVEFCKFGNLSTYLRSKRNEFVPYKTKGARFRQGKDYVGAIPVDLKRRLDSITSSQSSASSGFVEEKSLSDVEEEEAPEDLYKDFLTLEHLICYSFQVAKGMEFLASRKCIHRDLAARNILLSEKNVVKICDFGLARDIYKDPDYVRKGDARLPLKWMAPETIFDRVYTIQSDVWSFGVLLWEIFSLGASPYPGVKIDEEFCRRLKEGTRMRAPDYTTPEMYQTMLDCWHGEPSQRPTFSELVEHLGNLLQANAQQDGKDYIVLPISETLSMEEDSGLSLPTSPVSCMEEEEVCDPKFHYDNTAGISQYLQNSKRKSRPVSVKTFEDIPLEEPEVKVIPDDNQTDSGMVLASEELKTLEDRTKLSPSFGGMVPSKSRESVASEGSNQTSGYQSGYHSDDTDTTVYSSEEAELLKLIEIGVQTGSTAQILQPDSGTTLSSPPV

B1: His-tagged gremlin-1 (R&D Systems) (ligand, UniProt O60565 25-184, looked up)
chain: KKKGSQGAIPPPDKAQHNDSEQTQSPQQPGSRNRGRGQGRGTAMPGEEVLESSQEALHVTERKYLKRDWCKTQPLKQTIHEEGCNSRTIINRFCYGQCNSFYIPRHIRKEEGSFQSCSFCKPKKFTTMMVTLNCPELQPPTKKKRVTRVKQCRCISIDLD
notes: Commercial protein; not shown: His tag
Regarding B1, the binding result is reported as “no binding (tested: 100 nM)”.
